Results taken from the supplement of paper PMC10567573.
± gives the standard deviation.

Test: protein stability index of a GFP-peptide fusion (GPS, HEK-293T) (PSI 1-6); higher = more stable
[1] = treatment: DMSO, c terminus: a fixed tail appended
[2] = treatment: MLN4924 1 uM, 8 h, c terminus: a fixed tail appended
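Note: 24-mer peptide tiles fused after GFP, lentivirally expressed, FACS-sorted into six equal bins by GFP/DsRed ratio, decoded by Illumina sequencing, PSI is the read-weighted mean bin number.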

| Sequence | protein stability index [1] | protein stability index [2] | protein stability index (treatment: DMSO, c terminus: native) | protein stability index (treatment: MLN4924 1 uM, 8 h, c terminus: native) |
| --- | --- | --- | --- | --- |
| RHGGLSLVQTTDFFYPLVEDPYMM [SEPHS2] | 2.3 ± 0.25 | 2.24 ± 0.28 | – | – |
| RHKQPTLLMVRASRRSGKTSAVLK [C6orf223] | 3.29 ± 0.26 | 3.45 ± 0.24 | – | – |
| RISHTLYDLDKIIELNGGQPPLTY [CRY1] | 2.38 ± 0.041 | 2.6 ± 0.27 | – | – |
| RITAAEALKHPWISHRSTVASCMH [CAMK2A] | 2.54 ± 0.19 | 2.89 ± 0.19 | – | – |
| RKGCLRFQLPERGSRLCLYEDGTE [DFFB] | 3.34 ± 0.39 | 3.47 ± 0.21 | – | – |
| RKLFGQESGPSAEKYSVATQLFIG [FUNDC2] | 2.61 ± 0.18 | 2.47 ± 0.26 | – | – |
| RKLRELQLRNCLRILMGELSNHHD [BEX3] | 2.38 ± 0.21 | 2.28 ± 0.19 | – | – |
| RKSLLVVHQRTHTGEKPHTCSECG [ZNF649] | 3.98 ± 0.21 | 3.95 ± 0.42 | – | – |
| RLDGCIYAIKRSKKPLAGSVDEQN [WEE1] | 3.54 ± 0.28 | 3.73 ± 0.22 | – | – |
| RLLRFSSQIHNNGQSDFRPKNGRH [LOXL2] | 3.2 ± 0.41 | 3.42 ± 0.81 | – | – |
| RLNGTAKGERRREPGGYDSSSTLM [DVL3] | 3.62 ± 0.13 | 4.01 ± 0.31 | – | – |
| RLPFLSSSNLSLDVLRGNDETIGF [POMP] | 3.02 ± 0.42 | 3 ± 0.27 | – | – |
| RLQELCHGWLRPEMRTKEQILELL [ZNF263] | 2.58 ± 0.11 | 2.9 ± 0.12 | – | – |
| RLVHTTAIEHFQPNADLLFSDPSQ [FCHO1] | 3.78 ± 0.15 | 3.87 ± 0.24 | – | – |
| RMLKDNKKNWRRVYKSLLLLAYLI [CLINT1] | 2.45 ± 0.38 | 2.63 ± 0.23 | – | – |
| RNGSERVVTSAREHIYDLRSLENY [CLINT1] | 3.5 ± 0.16 | 3.81 ± 0.25 | – | – |
| RNPGPGRHRLITQVYLSHTAWTEA [INTS4] | 2 ± 0.23 | 2.29 ± 0.35 | – | – |
| RNQVVSSTNGELNVDDPTGAHSNA [CSNK1G1] | 5.25 ± 0.12 | 5.22 ± 0.18 | – | – |
| RQKVLSLPLPDPLKYYLLYYREK [PCMTD2] | – | – | 2.14 ± 0.18 | 2.46 ± 0.19 |
| RRCKPKKPTRRDASPESPSKKGPI [GNAS] | 5.15 ± 0.21 | 5.23 ± 0.22 | – | – |
| RRNSEFEIFVDCDINREQLNDIFH [TPH1] | 2.55 ± 0.096 | 2.73 ± 0.27 | – | – |
| RSDLYSSGRDRVGRQERGLPPSME [RBMX] | 4.41 ± 0.091 | 4.51 ± 0.23 | – | – |
| RSHEGETAYIRVKVDGPRSPSYGR [SRSF1] | 3.83 ± 0.19 | 3.73 ± 0.32 | – | – |

| Sequence | protein stability index [1] | protein stability index [2] | protein stability index (treatment: DMSO, c terminus: native) | protein stability index (treatment: MLN4924 1 uM, 8 h, c terminus: native) |
| --- | --- | --- | --- | --- |
| RSIFGNAVSRELIEIGCEDKTLAF [MLH1] | – | 2.97 ± 0.41 | – | – |
| RSLSACNKRVGMYLEGFDPFNQST [DLC1] | 2.85 ± 0.39 | 2.81 ± 0.5 | – | – |
| RSLSPSLSSVDMRMTSSPSSIPRR [RAD54B] | 4.66 ± 0.15 | 4.69 ± 0.18 | – | – |
| RSSHLVIHERTHERERLYPFSECG [ZNF263] | 2.93 ± 0.21 | 3.25 ± 0.3 | – | – |
| RSSVELELERCRQQAGLLVTGEKE [PPEF2] | 4.74 ± 0.57 | 4.86 ± 0.34 | – | – |
| RTAFLWRGNVVLRAQMIRNEYRKL [TRIM43] | 2.66 ± 0.29 | 2.51 ± 0.29 | – | – |
| RTILLSVISLLNEPNTFSPANVDA [CDC34] | 2.77 ± 0.41 | 2.66 ± 0.54 | – | – |
| RTVAVGDIVWGKIHGFPWWPARVL [PWWP2B] | 2.02 ± 0.47 | 2.17 ± 0.23 | – | – |
| RVEEQAILDAMAEETRQKQLLADE [TRIM35] | 5.57 ± 0.26 | 5.38 ± 0.15 | – | – |
| RVTSLANLISPVRNGAVRRFGQTI [NET1] | 2.55 ± 0.14 | 2.63 ± 0.33 | – | – |
| RVYFLKGGYETFYSEYPECCVDVK [DUSP5] | 2.09 ± 0.23 | 2.46 ± 0.55 | – | – |
| RWGYVAMKFAQVFGCFFYVYYIFE [SOAT1] | 3.17 ± 0.22 | 3.18 ± 0.39 | – | – |
| RYCQCNPDDSTSEDGIHTLTCALM [PSD2] | 3.96 ± 0.32 | 4.09 ± 0.18 | – | – |
| SAENGLEKSGFSQHQNKSPPKVKA [DLC1] | 5.14 ± 0.44 | 5.1 ± 0.45 | – | – |
| SAGDADPENGEIKPASKPAGSSHT [ELOA2] | 5.42 ± 0.42 | 5.47 ± 0.44 | – | – |
| SAVSTPSPVTRTRSLSACNKRVGM [DLC1] | 4.36 ± 0.19 | 4.38 ± 0.16 | – | – |
| SDAIRVVNAVLTQIDQIKRHSNVV [TRIP13] | 2.33 ± 0.2 | 2.35 ± 0.21 | – | – |
| SDDDEEEEENIGCEEKAKKNANRP [ACBD3] | 5.42 ± 0.28 | 5.49 ± 0.38 | – | – |
| SDKEIVAEAERLDVKAMGPLVLTE [EIF5] | 5.08 ± 0.054 | 5.23 ± 0.31 | – | – |
| SDLKDDDAVPPGMESLISAPLVKT [CDC25B] | 5.21 ± 0.28 | 5.17 ± 0.43 | – | – |
| SELRRTMQALEIELQSQLSMKASL [KRT17] | 2.46 ± 0.21 | 2.23 ± 0.2 | – | – |
| SFFFPPVNLPISFFRKLLDCCQVS [NLN] | 2.23 ± 0.77 | 2.25 ± 0.5 | – | – |
| SFPLWYEEALKDEEERAQDRIATT [MAGEA10] | 4.71 ± 0.19 | 4.5 ± 0.27 | – | – |

| Sequence | protein stability index [1] | protein stability index [2] | protein stability index (treatment: DMSO, c terminus: native) | protein stability index (treatment: MLN4924 1 uM, 8 h, c terminus: native) |
| --- | --- | --- | --- | --- |
| SGDFRSSTEDMERALSEYLAVFAR [P3H4] | 3.44 ± 0.23 | 4.11 ± 0.17 | – | – |
| SGEDPTAAAPVAEVPTAAGALTPT [CLPTM1] | 5.42 ± 0.16 | 5.47 ± 0.36 | – | – |
| SGFVGSGGWFCEGSFNGSEKETMQ [KRT36] | 3.87 ± 0.36 | 3.65 ± 0.19 | – | – |
| SGGHERSRDRRRSSDRSRDSSHER [BTBD10] | 5.48 ± 0.18 | 5.59 ± 0.19 | – | – |
| SGPARVIAIVSVMVILISIVIFCL [KCNA1] | 2.18 ± 0.14 | 2.22 ± 0.32 | – | – |
| SIGALISKAHLEKVRSYVKRALAE [ALDH8A1] | 2.42 ± 0.51 | 2.6 ± 1.1 | – | – |
| SILNAKAPALPPGGTDPHGYHQVP [FOXJ1] | 3.6 ± 0.2 | 3.66 ± 0.14 | – | – |
| SIPRHFALSGKYSREFFNRRGELR [SRPK2] | 2.74 ± 0.46 | 2.8 ± 0.46 | – | – |
| SISLMYGGSKRKSSFFSSPPYFED [SLA] | 2.37 ± 0.38 | 2.59 ± 0.2 | – | – |
| SKRMGPMTVVRMDASVQPGPFRTL [RHOBTB1] | 2.76 ± 0.14 | 2.91 ± 0.48 | – | – |
| SLARLQQLLFVIFLLLYLFTLGTN [OR10K2] | 2.78 ± 0.51 | 2.13 ± 0.53 | – | – |
| SLEESVGKPLYLIFRNLCQMQEDN [INTS3] | 2.45 ± 0.45 | 2.46 ± 0.22 | – | – |
| SLEHVQLFDLMRRMLEFDPAQRIT [CLK3] | 2.31 ± 0.29 | 2.07 ± 0.36 | – | – |
| SLGLDHCHSFISGTAPLNQETAEF [ACSBG2] | 4.18 ± 0.21 | 4.06 ± 0.16 | – | – |
| SLISGCPNIQEAVEGAMHIQECVP [CRYL1] | 3.87 ± 0.29 | 3.98 ± 0.18 | – | – |
| SLKFFLNKPMLADVVFEIQGTTVP [RHOBTB3] | 2.68 ± 0.39 | 2.29 ± 0.37 | – | – |
| SLLDVAEPGGPGWLPESDCETVTC [SMAD6] | 4.63 ± 0.27 | 4.74 ± 0.18 | – | – |
| SLSELLSQLDSGVSQAVEGPEELS [RIPK4] | 4.27 ± 0.29 | 4.1 ± 0.4 | – | – |
| SLSHINAYACLVCGKYFQGRGLKS [USP39] | 2.14 ± 0.39 | 2.07 ± 0.42 | – | – |
| SLSRNNSFRRNVGRVLLANSTQAD [FBXO34] | 3.15 ± 0.24 | 3.21 ± 0.3 | – | – |
| SLVSLVLYNMDLSDDHIRVIVQLH [ZER1] | 2.63 ± 0.41 | 2.71 ± 0.54 | – | – |
| SMAKEVIAKELSKTYQETPEIDMF [ZBED1] | 4.11 ± 0.21 | 4.05 ± 0.18 | – | – |
| SMDNTPHTPTPFKNALEKYGPLKP [MYBL2] | 3.48 ± 0.092 | 3.7 ± 0.16 | – | – |

| Sequence | protein stability index [1] | protein stability index [2] | protein stability index (treatment: DMSO, c terminus: native) | protein stability index (treatment: MLN4924 1 uM, 8 h, c terminus: native) |
| --- | --- | --- | --- | --- |
| SMEKDATLNVDRKEKCVSLPDCCH [DLC1] | 4.81 ± 0.2 | 4.92 ± 0.17 | – | – |
| SMRKIVATWMLEVCEEQKCEEEVF [CCND1] | 2.3 ± 0.25 | 2.47 ± 0.17 | – | – |
| SPADYLRFQDLVLRMLEYEPAARI [DYRK1B] | 2.56 ± 0.35 | 2.43 ± 0.33 | – | – |
| SPDDPESVKIIFKLPNDSRVERRF [FAF2] | 3.36 ± 0.23 | 3.46 ± 0.24 | – | – |
| SPELGRPHDRSQGDWAPPPEGGME [ZNF263] | 5.18 ± 0.21 | 5.41 ± 0.25 | – | – |
| SPKRGTAPGDLSATEPATCFPSTQ [FBF1] | 4.87 ± 0.18 | 4.92 ± 0.24 | – | – |
| SPQIQRSAHRALYRRHVLGIVLQG [TMEM175] | 2.3 ± 0.19 | 2.42 ± 0.36 | – | – |
| SPRDEYKPLDLSDSTLSYTETEAT [SMAD6] | 5.45 ± 0.24 | 5.41 ± 0.23 | – | – |
| SPTSRPPWAVDPAFAERYAPDKTS [PDLIM7] | 4.63 ± 0.21 | 4.7 ± 0.31 | – | – |
| SQDEPIALDKQHSRDSAAITHSTY [NOL4L] | 5.01 ± 0.22 | 5.08 ± 0.16 | – | – |
| SQEETSILRCWKCRKCIASSGCFM [RNF180] | 2.81 ± 0.4 | 2.89 ± 0.35 | – | – |
| SQPIDLSACTVALHIFQLNEDGPS [TRIP13] | 2.56 ± 0.2 | 2.51 ± 0.28 | – | – |
| SQSLALKEQNNLKQLEFGLKEAPV [ZNF8] | 4.7 ± 0.24 | 4.44 ± 0.16 | – | – |
| SQSSYLSQHRRIHSGEKPFICKEC [ZNF232] | 3.36 ± 0.33 | 3.67 ± 0.44 | – | – |
| SQVALKIIRNVGKYREAARLEINV [CLK3] | 2.67 ± 0.51 | 2.62 ± 0.54 | – | – |
| SRAESAPLPVSADDTPEVLNRALS [CDS2] | 5.36 ± 0.19 | 5.37 ± 0.21 | – | – |
| SRLTALTLHQRTHTEERPFKCNYC [ZNF449] | 2.73 ± 0.23 | 3.03 ± 0.4 | – | – |
| SRSLLTGGYNLASVSVWDLAAPSL [TLE6] | 2.38 ± 0.27 | 2.29 ± 0.14 | – | – |
| SRVGKQSFIITLGCNSVLIQFATP [CARM1] | 2.83 ± 0.4 | 2.97 ± 0.56 | – | – |
| SSAYVKTSEKLGEWNEKVTQSDLY [TPD52L2] | 4.02 ± 0.19 | 3.98 ± 0.17 | – | – |
